From patent US20130236473A1, “THERAPEUTIC AGENTS AND PROPHYLACTIC AGENTS FOR SYMPTOMS ACCOMPANYING AUTOIMMUNE DISEASES, INFLAMMATORY DISEASES, ALLERGY DISEASES AND ORGAN TRANSPLANTS” (OSAKA UNIVERSITY, priority 2010, published 2013)

Tested on: IL-6 amplifier
Test: Reference Example 3: effect of growth factors on mIL-6 protein production in BC-1 cells (ELISA)
Format: cell-based, mouse
Conditions: 24 hours, hIL-6/6R and mIL-17A each 50 ng/ml, growth factor added, versus none added
Experimental: 2×10^5 mouse BC-1 cells were cultured for 24 hours in an RPMI 1640 medium containing hIL-6/6R proteins each at 50 ng/ml and mIL-17A protein at 50 ng/ml under the condition in which 100 ng/ml of mouse EGF protein (R&D Systems, Inc.), 100 ng/ml of human HB-EGF protein (R&D Systems, Inc.), 0.1, 1, 10, or 100 ng/ml of mouse epiregulin protein (R&D Systems, Inc.), 50 ng/ml of mouse VEGF protein (R&D Systems, Inc.), 50 ng/ml of mouse FGF7 protein (R&D Systems, Inc.), or 300 ng/ml of mPDGF-CC protein (R&D Systems, Inc.) was separately added. Mouse BC-1 cells cultured under the condition in which only hIL-6/6R proteins and mIL-17A protein were added served as a control group.
After the culture, the production amount of mIL-6 protein under each condition was quantified by an ELISA method in the same manner as in Reference Example 1. FIGS. 5 and 6 show the results.

Molecule	production amount of mIL-6 protein
HB-EGF protein: human HB-EGF protein (R&D Systems, Inc.), ligand of ErbB1 protein (protein) DLQEADLDLLRVTLSSKPQALATPNKEEHGKRKKKGKGLGKKRDPCLRKYKDFCIHGECKYVKELRAPSCICHPGYHGERCHGLSL	significantly (p value <0.01) increased
FGF7 protein: mouse FGF7 protein (R&D Systems, Inc.), not a ligand of ErbB1 protein (protein, UniProt P36363 32-194, looked up) Fibroblast growth factor 7: CNDMSPEQTATSVNCSSPERHTRSYDYMEGGDIRVRRLFCRTQWYLRIDKRGKVKGTQEMKNSYNIMEIRTVAVGIVAIKGVESEYYLAMNKEGKLYAKKECNEDCNFKELILENHYNTYASAKWTHSGGEMFVALNQKGIPVKGKKTKKEQKTAHFLPMAIT	no significant difference
